± gives the standard deviation.
Experiment: protein stability index of a GFP-peptide fusion (GPS, HEK-293T) (PSI 1-6); higher = more stable
[1] = treatment: DMSO, c terminus: a fixed tail appended
[2] = treatment: MLN4924 1 uM, 8 h, c terminus: a fixed tail appended
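Also: 24-mer peptide tiles fused after GFP, lentivirally expressed, FACS-sorted into six equal bins by GFP/DsRed ratio, decoded by Illumina sequencing, PSI is the read-weighted mean bin number.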

SVAVAARHAQTISGHALRILIVDW [HDAC6]
protein stability index [1]: 2.82 ± 0.73 | protein stability index [2]: 2.62 ± 0.63

NRRSSRETREYAPPSRGHGYRDYG [RBMY1A1]
protein stability index [1]: 4.27 ± 0.24 | protein stability index [2]: 4.09 ± 0.23

EPPPPLHNNNNNCEENEQSLPPPA [BNIP3L]
protein stability index [1]: 5.51 ± 0.27 | protein stability index [2]: 5.68 ± 0.13

GGVMYISGGITHDTFQKELMCFDP [KLHL13]
protein stability index [1]: 2.23 ± 0.48 | protein stability index [2]: 2.33 ± 0.54

VIKENDPSGFLQISDALIRRVHLT [TRIM9]
protein stability index [1]: 2.07 ± 0.26 | protein stability index [2]: 2.39 ± 0.34

RETVLIETQLKACASFIRTRLLLQ [C8orf76]
protein stability index [1]: 2.88 ± 0.57 | protein stability index [2]: 2.9 ± 0.71

MYEEEINETRRKHETRLVEVDSGR [LMNB1]
protein stability index [1]: 5.04 ± 0.44 | protein stability index [2]: 5.06 ± 0.099

LFTDLFDRKGYMFDYEYDWIGKQL [CSNK1G3]
protein stability index [1]: 2.24 ± 0.32 | protein stability index [2]: 2.15 ± 0.3

DAGEGIQCSQRMLSFSDALLSIIA [TMEM175]
protein stability index [1]: 2.25 ± 0.091 | protein stability index [2]: 2.35 ± 0.3

GSKLEKGHLRGPEIRDWRGPQLEG [ZSWIM9]
protein stability index [1]: 3.87 ± 0.35 | protein stability index [2]: 3.85 ± 0.2

AADVWSLGVALFTMLAGHYPFQDS [TRIB3]
protein stability index [1]: 2.96 ± 0.098 | protein stability index [2]: 2.94 ± 0.2

MNHYKKTTLEIHNTEERQKRQVTH [PTPN9]
protein stability index [1]: 4.52 ± 0.06 | protein stability index [2]: 4.49 ± 0.36

LLCPETYVWVPIEQCLPSLENSKY [ATE1]
protein stability index [1]: 2.19 ± 0.15 | protein stability index [2]: 2.03 ± 0.18

HTEASAQRSHMGKLKEPQPQDHKP
protein stability index [1]: 5.24 ± 0.71 | protein stability index [2]: 5.24 ± 0.33

PKVSDQALVSAHSEWQRKLEAAEA [DMRTC1]
protein stability index [1]: 4.54 ± 0.23 | protein stability index [2]: 4.66 ± 0.29

LEEKRLTWRLPDVSEAGGSGRLSA [FCHO1]
protein stability index [1]: 4.37 ± 0.25 | protein stability index [2]: 4.25 ± 0.044

NAGLSHTEYQIVTDPGDVPAFLKW [SLC2A12]
protein stability index [1]: 2.92 ± 0.3 | protein stability index [2]: 3.1 ± 0.34

SPDILEEKHCEFKQLALDHFKKTK [ATL3]
protein stability index [1]: 4.79 ± 0.23 | protein stability index [2]: 4.79 ± 0.12

EQLIEAISNGDFESYTKMCDPGMT [CAMK2A]
protein stability index [1]: 3.92 ± 0.28 | protein stability index [2]: 3.76 ± 0.44

IAAAVYIMDTVGNIWVCYASYVVF [SLC19A2]
protein stability index [1]: 2.89 ± 0.13 | protein stability index [2]: 2.87 ± 0.27

LLHVSSPNLASDSDLSRRSSSTMS [KCNA1]
protein stability index [1]: 4.26 ± 0.069 | protein stability index [2]: 4.37 ± 0.055

QQPSKHRTDEELQPPTTTVARSGT [PLK2]
protein stability index [1]: 5.47 ± 0.15 | protein stability index [2]: 5.27 ± 0.1

PALLEATGGAAGAGGAGRGEDEEN [KCTD13]
protein stability index [1]: 5.62 ± 0.24 | protein stability index [2]: 5.64 ± 0.24

ALLDSLPPPVESELALFQMSVLWL [KLHL14]
protein stability index [1]: 2.45 ± 0.23 | protein stability index [2]: 2.03 ± 0.19

TVPADGYILELDDGNGGQFREVYV [TRIM9]
protein stability index [1]: 2.15 ± 0.24 | protein stability index [2]: 2.2 ± 0.6

GVGKSALTVQFVQGIFVEKYDPTI [RAP1B]
protein stability index [1]: 2.25 ± 0.28 | protein stability index [2]: 2.07 ± 0.25

SSDSVGGFRYSERYDPEPKSKWDE [CLINT1]
protein stability index [1]: 4.98 ± 0.29 | protein stability index [2]: 4.95 ± 0.091

YRIRQVNIYYYLEDDSMSVIEPVV [EFHC1]
protein stability index [1]: 2.87 ± 0.31 | protein stability index [2]: 2.55 ± 0.55

TKPQNLNDAYGPPSNFLEIDVSNP [SNX3]
protein stability index [1]: 4.46 ± 0.42 | protein stability index [2]: 4.29 ± 0.47

SNVSSSGSINLLESPQLATLAEDV [MAP2]
protein stability index [1]: 5.03 ± 0.22 | protein stability index [2]: 5.17 ± 0.24

TEALGCDPPLSQDERTHRSDRPFK [ZNF8]
protein stability index [1]: 5.39 ± 0.28 | protein stability index [2]: 5.26 ± 0.16

GVVVCEADTGRIHRFVEKPQVFVS [GMPPB]
protein stability index [1]: 2.25 ± 0.19 | protein stability index [2]: 2.28 ± 0.3

LENAEVLELTVRRVQGVLRGRARE [HES6]
protein stability index [1]: 3.81 ± 0.33 | protein stability index [2]: 3.88 ± 0.19

DPEEAIRHDVIVSIVTAAKKDILL [PDS5B]
protein stability index [1]: 2.3 ± 0.15 | protein stability index [2]: 2.54 ± 0.3

MEVAMVSAESSGCNSHMPYGYAAQ [KCNA4]
protein stability index [1]: 2.95 ± 0.15 | protein stability index [2]: 3.32 ± 0.5

GTTLVVGLLAGVGYFAFMLFRKRL [GDAP1]
protein stability index [1]: 2.41 ± 0.49 | protein stability index [2]: 2.63 ± 0.22

AIRRRNVRGEDSGRKPERRRLKTT [DAPK3]
protein stability index [1]: 4.644 ± 0.043 | protein stability index [2]: 4.69 ± 0.9

LQAALQVLELHHSKLDTTKALNLL [VPS39]
protein stability index [1]: 2.23 ± 0.27 | protein stability index [2]: 2.29 ± 0.21

PVDSVLFYAITTLHNLLLHQEGAK [CTNNB1]
protein stability index [1]: 2.81 ± 0.48 | protein stability index [2]: 2.71 ± 0.17

IGDVHLAPFTDEQLYMEQFTKANF [CARM1]
protein stability index [1]: 3 ± 0.2 | protein stability index [2]: 3.03 ± 0.36

SSSYSPETFRQQFRQFGYQDSPGP [ZNF396]
protein stability index [1]: 3.48 ± 0.23 | protein stability index [2]: 3.24 ± 0.21

RAEIENLHRTFDPHFLRVPCWKIT [MOG]
protein stability index [1]: 2.27 ± 0.22 | protein stability index [2]: 2.42 ± 0.22

AEVSVISEADPQALLQAMKDLDGM [FBF1]
protein stability index [1]: 4.52 ± 0.19 | protein stability index [2]: 4.36 ± 0.2

DEMLSYLPGGTTGLQLPSTLPVSG [TFE3]
protein stability index [1]: 3.95 ± 0.26 | protein stability index [2]: 4.15 ± 0.21

LPSDGDHQVPTTAGNKAALLDQIR [WASL]
protein stability index [1]: 4.73 ± 0.24 | protein stability index [2]: 4.1 ± 0.84

LASQALTPPPGPASAQPLPAPEAA [TFE3]
protein stability index [1]: 5.26 ± 0.25 | protein stability index [2]: 5.24 ± 0.11

SRQLLPGDEFSLREHELLCRADHG [ISL2]
protein stability index [1]: 4.19 ± 0.17 | protein stability index [2]: 4.27 ± 0.089

KPKMYFMTMIVSLAAVAWVGQQVH [ARL6IP1]
protein stability index [1]: 2.83 ± 0.48 | protein stability index [2]: 3.28 ± 0.69

FALIAVVFLASGAVSVMKKCRKLE [SLC19A2]
protein stability index [1]: 3.18 ± 0.35 | protein stability index [2]: 3 ± 0.29

PSPPAAPSVADNLLASSDAALSAS [SERTAD1]
protein stability index [1]: 5.25 ± 0.21 | protein stability index [2]: 5.25 ± 0.094

DDDDEEEEVSEVESFILDQDDLEN [ANKRD17]
protein stability index [1]: 5.765 ± 0.056 | protein stability index [2]: 5.68 ± 0.13

CLSCRLFYFKLTDLYKKVKKNSSP [CRY1]
protein stability index [1]: 2.42 ± 0.11 | protein stability index [2]: 2.08 ± 0.44

ENLSVPVIGALLRFNQAILVSRHD [LPCAT4]
protein stability index [1]: 2.43 ± 0.61 | protein stability index [2]: 2.5 ± 0.34

RSSSCGDTELLGQATLPVGSPSRP [C2CD2L]
protein stability index [1]: 5.04 ± 0.15 | protein stability index [2]: 5.04 ± 0.13

SSGPGNSQNSFLVQEVMEEEWNAL [RPAIN]
protein stability index [1]: 4.88 ± 0.2 | protein stability index [2]: 4.92 ± 0.25

IHGENIICEATQIIDYLEQTFLDE [GDAP1]
protein stability index [1]: 2.82 ± 0.22 | protein stability index [2]: 3.12 ± 0.21

IEREHLIQLRRWQETRGELQCRSP [TBC1D10A]
protein stability index [1]: 3.88 ± 0.2 | protein stability index [2]: 3.82 ± 0.24

ATGFHFNAMTCEGCKGFFRRSMKR [VDR]
protein stability index [1]: 2.63 ± 0.18 | protein stability index [2]: 2.9 ± 0.21

QASVSCALEALEPFWEVLVRSTET [HDAC6]
protein stability index [1]: 2.64 ± 0.57 | protein stability index [2]: 2.46 ± 1.1

MDPPNPEEVKTPEEEMRSHYVAQT [GAGE1]
protein stability index [1]: 5.44 ± 0.087 | protein stability index [2]: 5.4 ± 0.2

VSHPIIYRGAVYADNMEFEQCIKL [FEM1B]
protein stability index [1]: 2.5 ± 0.48 | protein stability index [2]: 2.5 ± 0.25

VLKDELQLYGDAPGEVVPSGESGL [TMEM40]
protein stability index [1]: 5.14 ± 0.24 | protein stability index [2]: 5.26 ± 0.23

DLVPAALGSLTTAQIARSVWRPW [HES6]
protein stability index (treatment: DMSO, c terminus: native): 2.09 ± 0.17 | protein stability index (treatment: MLN4924 1 uM, 8 h, c terminus: native): 2.32 ± 0.43

SQEESEEGEEDATSEVDKRRTRPR [CHGB]
protein stability index [1]: 5.57 ± 0.33 | protein stability index [2]: 5.59 ± 0.2

SYMLQDSLEHVQLFDLMRRMLEFD [CLK3]
protein stability index [1]: 2.35 ± 0.027 | protein stability index [2]: 2.47 ± 0.21

Reference: the supplement of paper PMC10567573
